One data set deals with NF-κB. Put plainly: Inflammation assay: NF-κB inducible SEAP reporter in RAW-Blue macrophages stimulated with PAM3CSK4. It counts as cell-based, murine. The conditions noted are these: for inhibition of inflammation (SEAP / NF-κB activity, in words): 10 ng/mL peptide with 200 ng/mL PAM3CSK4, 18 hours, compared to +PAM3; for Inflammation (% Inhib.): % inhibition relative to positive control. An outline of the steps: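 RAW-Blue murine RAW 264.7 macrophages carrying an NF-κB-inducible SEAP reporter were stimulated with 200 ng/mL PAM3CSK4 and given peptide at 10 ng/mL. After 18 h, supernatant SEAP was developed with QUANTI-BLUE for 20 min at 37 °C and read by absorbance at 630 nm. Values are mean and SDM of n=3.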

Data set [1] is described as follows: Circular dichroism (CD) spectroscopy of linear and stapled peptides in water or 40% TFE/water (Example 3). It counts as physicochemical. The conditions noted are these: for [0]208 mean residue ellipticity: λ = 208 nm; for [0]222 mean residue ellipticity: λ = 222 nm. Put shortly:
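Spectra 180–260 nm at 20 °C, 0.5 mM N-acetylated, C-amidated peptides in 0.1M phosphate buffer (water) or 40% TFE/water, 1 mm path, five scans averaged, buffer baseline subtracted. Mean residue ellipticity reported at 222 and 208 nm with the 222/208 ratio as helicity index.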

Setting [2] is: [θ]222/[θ]208 ratio in water, summary tables 15, 17, 19.
[3] abbreviates: as repeated in tables 16, 18, 20.

Bridges are numbered along the chain shown (N, C = ends).

As to “Ac-(cyclo-8,12)-NLKQKIK[EVVKK]KDE-NH2 (Ac-NLKQKIKEVVKKKDE-NH2; lactam 8-12; SMILES CC[C@H](C)[C@H](NC(=O)[C@H](CCCCN)NC(=O)[C@H](CCC(N)=O)NC(=O)[C@H](CCCCN)NC(=O)[C@H](CC(C)C)NC(=O)[C@H](CC(N)=O)NC(C)=O)C(=O)N[C@@H](CCCCN)C(=O)N[C@H]1CCC(=O)NCCCC[C@@H](C(=O)N[C@@H](CCCCN)C(=O)N[C@@H](CC(=O)O)C(=O)N[C@@H](CCC(=O)O)C(N)=O)NC(=O)[C@H](CCCCN)NC(=O)[C@H](C(C)C)NC(=O)[C@H](C(C)C)NC1=O) [Compound 161]”, in the data set on NF-κB, the “inhibition of inflammation (SEAP / NF-κB activity, in words)” value is reported as “significantly inhibited inflammation” and the “Inflammation (% Inhib.)” value came out at 6 % Inhib. Also, the “[θ]222/[θ]208 ratio of ellipticities” value in data set [1] (setting [2]) turned out to be 0.31. The “[θ]222/[θ]208 ratio of ellipticities” value in data set [1] (setting [3]) turned out to be 0.31. In data set [1] (in 40% TFE/water), the “[0]222/[0]208 ratio of ellipticities” value is 0.82, the “[0]208 mean residue ellipticity” value is recorded as -1.96E+04 deg cm^2 dmol^−1 and the “[0]222 mean residue ellipticity” value is on record as -1.60E+04 deg cm^2 dmol^−1. For the same substance, in data set [1] (in water), the “[0]222/[0]208 ratio of ellipticities” value is on record as 0.31, the “alpha-helical character by CD (in words)” value is on record as “decreased helicity”, the “[0]208 mean residue ellipticity” value is given as -5.85E+03 deg cm^2 dmol^−1 and the “[0]222 mean residue ellipticity” value was -1.80E+03 deg cm^2 dmol^−1.
As to “Ac-(cyclo-28-32)-NLKQKIKHVVKLKDENSQLKSEVSKLR[EQLVK]RKQN-NH2 (Ac-NLKQKIKHVVKLKDENSQLKSEVSKLREQLVKRKQN-NH2; lactam 28-32; SMILES CC[C@H](C)[C@H](NC(=O)[C@H](CCCCN)NC(=O)[C@H](CCC(N)=O)NC(=O)[C@H](CCCCN)NC(=O)[C@H](CC(C)C)NC(=O)[C@H](CC(N)=O)NC(C)=O)C(=O)N[C@@H](CCCCN)C(=O)N[C@@H](Cc1c[nH]cn1)C(=O)N[C@H](C(=O)N[C@H](C(=O)N[C@@H](CCCCN)C(=O)N[C@@H](CC(C)C)C(=O)N[C@@H](CCCCN)C(=O)N[C@@H](CC(=O)O)C(=O)N[C@@H](CCC(=O)O)C(=O)N[C@@H](CC(N)=O)C(=O)N[C@@H](CO)C(=O)N[C@@H](CCC(N)=O)C(=O)N[C@@H](CC(C)C)C(=O)N[C@@H](CCCCN)C(=O)N[C@@H](CO)C(=O)N[C@@H](CCC(=O)O)C(=O)N[C@H](C(=O)N[C@@H](CO)C(=O)N[C@@H](CCCCN)C(=O)N[C@@H](CC(C)C)C(=O)N[C@@H](CCCNC(=N)N)C(=O)N[C@H]1CCC(=O)NCCCC[C@@H](C(=O)N[C@@H](CCCNC(=N)N)C(=O)N[C@@H](CCCCN)C(=O)N[C@@H](CCC(N)=O)C(=O)N[C@@H](CC(N)=O)C(N)=O)NC(=O)[C@H](C(C)C)NC(=O)[C@H](CC(C)C)NC(=O)[C@H](CCC(N)=O)NC1=O)C(C)C)C(C)C)C(C)C) [Compound 277]”, in the data set on NF-κB, the “inhibition of inflammation (SEAP / NF-κB activity, in words)” value is “significantly inhibited inflammation” and the “Inflammation (% Inhib.)” value was 8 % Inhib. In data set [1] (40% TFE/water), the “[0]208 mean residue ellipticity at λ=208 nm” value was -3.10E04 deg cm^2 dmol^−1, the “[0]222/[0]208 ratio of ellipticities” value came to 0.85 and the “[0]222 mean residue ellipticity at λ=222 nm” value is -2.65E04 deg cm^2 dmol^−1. Also, the “[θ]222/[θ]208 ratio of ellipticities” value in data set [1] (setting [2]) is recorded as 0.64. The “[θ]222/[θ]208 ratio of ellipticities” value in data set [1] (setting [3]) is on record as 0.64. In data set [1] (water), the “[0]208 mean residue ellipticity at λ=208 nm” value was -1.46E+04 deg cm^2 dmol^−1, the “[0]222/[0]208 ratio of ellipticities” value was determined as 0.64 and the “[0]222 mean residue ellipticity at λ=222 nm” value is -9.36E+03 deg cm^2 dmol^−1.
As to “Ac-(cyclo-5,9)-NLKQ[EIKHK]VKLKDE-NH2 (Ac-NLKQEIKHKVKLKDE-NH2; lactam 5-9; SMILES CC[C@H](C)[C@@H]1NC(=O)[C@@H](NC(=O)[C@H](CCC(N)=O)NC(=O)[C@H](CCCCN)NC(=O)[C@H](CC(C)C)NC(=O)[C@H](CC(N)=O)NC(C)=O)CCC(=O)NCCCC[C@@H](C(=O)N[C@H](C(=O)N[C@@H](CCCCN)C(=O)N[C@@H](CC(C)C)C(=O)N[C@@H](CCCCN)C(=O)N[C@@H](CC(=O)O)C(=O)N[C@@H](CCC(=O)O)C(N)=O)C(C)C)NC(=O)[C@H](Cc2c[nH]cn2)NC(=O)[C@H](CCCCN)NC1=O) [Compound 158]”, the “Inflammation (% Inhib.)” value in the data set with NF-κB is given as 0 % Inhib. Further, the “[θ]222/[θ]208 ratio of ellipticities” value in data set [1] (setting [2]) came to 0.43. Besides, in data set [1] (setting [3]), the “[θ]222/[θ]208 ratio of ellipticities” value amounted to 0.43. In data set [1] (in 40% TFE/water), the “[0]222/[0]208 ratio of ellipticities” value was 0.84, the “[0]208 mean residue ellipticity” value is on record as -1.70E+04 deg cm^2 dmol^−1 and the “[0]222 mean residue ellipticity” value is listed as -1.24E+04 deg cm^2 dmol^−1. Moreover, in data set [1] (in water), the “[0]222/[0]208 ratio of ellipticities” value is reported as 0.43, the “[0]208 mean residue ellipticity” value is -6.60E+03 deg cm^2 dmol^−1 and the “[0]222 mean residue ellipticity” value is -2.83E+03 deg cm^2 dmol^−1.
With “Ac-KIKHVVKLKDENSQLKSEVSKLRSQLVKRK-NH2 [Compound 265]”, in the data set with NF-κB, the “inhibition of inflammation (SEAP / NF-κB activity, in words)” value was “significantly inhibited inflammation” and the “Inflammation (% Inhib.)” value amounted to 18 % Inhib. In data set [1] (40% TFE/water), the “[0]208 mean residue ellipticity at λ=208 nm” value is given as -2.72E04 deg cm^2 dmol^−1, the “[0]222/[0]208 ratio of ellipticities” value was 0.80 and the “[0]222 mean residue ellipticity at λ=222 nm” value is given as -2.18E04 deg cm^2 dmol^−1. Also, in data set [1] (setting [2]), the “[θ]222/[θ]208 ratio of ellipticities” value amounted to 0.40. The “[θ]222/[θ]208 ratio of ellipticities” value in data set [1] (setting [3]) stood at 0.40. In data set [1] (water), the “[0]208 mean residue ellipticity at λ=208 nm” value is reported as -2.73E+04 deg cm^2 dmol^−1, the “[0]222/[0]208 ratio of ellipticities” value was found to be 0.40 and the “[0]222 mean residue ellipticity at λ=222 nm” value is given as -1.09E+04 deg cm^2 dmol^−1.
Regarding “Ac-(cyclo-10-14, cyclo-15-19)-KIKHVVKLK[EENSK][EKSEK]SKLRSQLVKRK-NH2 (Ac-KIKHVVKLKEENSKEKSEKSKLRSQLVKRK-NH2; lactam 10-14, 15-19; SMILES CC[C@H](C)[C@H](NC(=O)[C@H](CCCCN)NC(C)=O)C(=O)N[C@@H](CCCCN)C(=O)N[C@@H](Cc1c[nH]cn1)C(=O)N[C@H](C(=O)N[C@H](C(=O)N[C@@H](CCCCN)C(=O)N[C@@H](CC(C)C)C(=O)N[C@@H](CCCCN)C(=O)N[C@H]1CCC(=O)NCCCC[C@@H](C(=O)N[C@H]2CCC(=O)NCCCC[C@@H](C(=O)N[C@@H](CO)C(=O)N[C@@H](CCCCN)C(=O)N[C@@H](CC(C)C)C(=O)N[C@@H](CCCNC(=N)N)C(=O)N[C@@H](CO)C(=O)N[C@@H](CCC(N)=O)C(=O)N[C@@H](CC(C)C)C(=O)N[C@H](C(=O)N[C@@H](CCCCN)C(=O)N[C@@H](CCCNC(=N)N)C(=O)N[C@@H](CCCCN)C(N)=O)C(C)C)NC(=O)[C@H](CCC(=O)O)NC(=O)[C@H](CO)NC(=O)[C@H](CCCCN)NC2=O)NC(=O)[C@H](CO)NC(=O)[C@H](CC(N)=O)NC(=O)[C@H](CCC(=O)O)NC1=O)C(C)C)C(C)C) [Compound 266]”, the “Inflammation (% Inhib.)” value with NF-κB was 0 % Inhib. Also, in data set [1] (40% TFE/water), the “[0]208 mean residue ellipticity at λ=208 nm” value is -2.11E04 deg cm^2 dmol^−1, the “[0]222/[0]208 ratio of ellipticities” value amounted to 0.84 and the “[0]222 mean residue ellipticity at λ=222 nm” value is -1.77E04 deg cm^2 dmol^−1. The “[θ]222/[θ]208 ratio of ellipticities” value in data set [1] (setting [2]) was determined as 0.63. The “[θ]222/[θ]208 ratio of ellipticities” value in data set [1] (setting [3]) is 0.63. Moreover, in data set [1] (in water), the “[0]222/[0]208 ratio of ellipticities” value was found to be 0.63 and the “alpha-helical character by CD (in words)” value was “best improvement in helicity”. For the same substance, in data set [1] (water), the “[0]208 mean residue ellipticity at λ=208 nm” value is -9.36E+03 deg cm^2 dmol^−1, the “[0]222/[0]208 ratio of ellipticities” value came to 0.63 and the “[0]222 mean residue ellipticity at λ=222 nm” value is recorded as -5.89E+03 deg cm^2 dmol^−1.
Consider “Ac-(cyclo-4,8)-NLK[EKIKK]VVKLKDE-NH2 (Ac-NLKEKIKKVVKLKDE-NH2; lactam 4-8; SMILES CC[C@H](C)[C@@H]1NC(=O)[C@H](CCCCN)NC(=O)[C@@H](NC(=O)[C@H](CCCCN)NC(=O)[C@H](CC(C)C)NC(=O)[C@H](CC(N)=O)NC(C)=O)CCC(=O)NCCCC[C@@H](C(=O)N[C@H](C(=O)N[C@H](C(=O)N[C@@H](CCCCN)C(=O)N[C@@H](CC(C)C)C(=O)N[C@@H](CCCCN)C(=O)N[C@@H](CC(=O)O)C(=O)N[C@@H](CCC(=O)O)C(N)=O)C(C)C)C(C)C)NC(=O)[C@H](CCCCN)NC1=O) [Compound 157]”, for which, in the data set on NF-κB, the “Inflammation (% Inhib.)” value stood at 0 % Inhib. In data set [1] (setting [2]), the “[θ]222/[θ]208 ratio of ellipticities” value is given as 0.38. Moreover, the “[θ]222/[θ]208 ratio of ellipticities” value in data set [1] (setting [3]) turned out to be 0.38. In addition, in data set [1] (in 40% TFE/water), the “[0]222/[0]208 ratio of ellipticities” value was found to be 0.80, the “[0]208 mean residue ellipticity” value is given as -1.56E+04 deg cm^2 dmol^−1 and the “[0]222 mean residue ellipticity” value is -1.25E+04 deg cm^2 dmol^−1. In data set [1] (in water), the “[0]222/[0]208 ratio of ellipticities” value was 0.38, the “alpha-helical character by CD (in words)” value is “decreased helicity”, the “[0]208 mean residue ellipticity” value was -6.40E+03 deg cm^2 dmol^−1 and the “[0]222 mean residue ellipticity” value is reported as -2.46E+03 deg cm^2 dmol^−1.
For “Ac-NLKQKIKHVVKLKDENSQLKSEVSKLRSQLVKRKQN-NH2 [Compound 275]”, the “Inflammation (% Inhib.)” value in the data set on NF-κB amounted to 0 % Inhib. For the same substance, in data set [1] (40% TFE/water), the “[0]208 mean residue ellipticity at λ=208 nm” value is -3.52E04 deg cm^2 dmol^−1, the “[0]222/[0]208 ratio of ellipticities” value is given as 0.83 and the “[0]222 mean residue ellipticity at λ=222 nm” value was -2.96E04 deg cm^2 dmol^−1. Besides, in data set [1] (setting [2]), the “[θ]222/[θ]208 ratio of ellipticities” value is listed as 0.35. Besides, in data set [1] (setting [3]), the “[θ]222/[θ]208 ratio of ellipticities” value is reported as 0.35. Besides, in data set [1] (water), the “[0]208 mean residue ellipticity at λ=208 nm” value is given as -9.71E+03 deg cm^2 dmol^−1, the “[0]222/[0]208 ratio of ellipticities” value stood at 0.35 and the “[0]222 mean residue ellipticity at λ=222 nm” value is given as -3.35E+03 deg cm^2 dmol^−1.

These data come from US10562935B2, “Stapled peptides and uses thereof” (London Health Sciences Centre Research Inc., priority 2015, dated 2020).
